Reference: US7037504B2, “Epidermal growth factor protein and gene, and methods of use therefor” (Waratah Pharmaceuticals, Inc., priority 2001, dated 2006)

How the values were obtained:
carboxypeptidase B = target: T1, carboxypeptidase B (Homo sapiens, UniProt P15086); assay: Resistance in vitro to digestion with carboxypeptidase B; type: in vitro ADME
T1 sequence (P15086 111-417): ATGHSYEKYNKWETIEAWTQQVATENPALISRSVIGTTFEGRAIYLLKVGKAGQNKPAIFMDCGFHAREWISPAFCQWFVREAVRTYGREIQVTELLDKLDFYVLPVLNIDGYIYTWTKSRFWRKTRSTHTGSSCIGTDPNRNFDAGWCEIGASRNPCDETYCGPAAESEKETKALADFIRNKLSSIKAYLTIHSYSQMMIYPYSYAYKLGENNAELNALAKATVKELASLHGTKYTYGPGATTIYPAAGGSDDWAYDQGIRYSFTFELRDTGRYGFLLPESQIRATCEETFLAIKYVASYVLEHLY

[1] = system: anaesthetized gastric fistula rats; assay: Inhibition of gastric acid secretion in vivo; design: species or system rat; conditions: after intravenous bolus injection of 8 μg
[2] = system: streptozotocin-induced diabetic rats; assay: Stimulation of islet neogenesis in vivo, glucose challenge in diabetic rats; design: species or system rat
Procedure: After treatment, rats were evaluated for ability to restore plasma glucose to resting levels, shown on the ordinate, as a function of time in minutes shown on the abscissa, after an oral glucose challenge.
EGF51N produced as above was used in an assay to measure to stimulation of islet neogenesis in vivo, as measured by lower blood concentration of treated animals to a subsequent challenge by glucose, to diabetic rats.

[3] = relative enzyme concentration (ratio of carboxypeptidase to EGF) 0.01
[4] = relative enzyme concentration (ratio of carboxypeptidase to EGF) 0.1
[5] = relative enzyme concentration (ratio of carboxypeptidase to EGF) 1 (excess enzyme)

Molecule	% remaining (carboxypeptidase B; [3]) [%]	% remaining (carboxypeptidase B; [4]) [%]	% remaining (carboxypeptidase B; [5]) [%]	duration of inhibition of gastric acid production [1] [min]	onset of inhibition of gastric acid production [1] [min]	restoration of plasma glucose to resting levels after oral glucose challenge ([2]; 40 μg/kg/day of each of human gastrin and EGF51N, intraperitoneal continuous infusion for 14 days)	potency in stimulation of islet neogenesis ([2]; diabetic rats, glucose challenge, compared with positive control TGFα)
CC[C@H](C)[C@@H]1NC(=O)[C@H](Cc2ccc(O)cc2)NC(=O)CNC(=O)[C@H](C(C)C)NC(=O)[C@H](C(C)C)NC(=O)[C@@H](NC(=O)[C@H](CC(N)=O)NC(=O)[C@@H]2CSSC[C@@H]3NC(=O)[C@H](Cc4ccc(O)cc4)NC(=O)CNC(=O)[C@H](CC(=O)O)NC(=O)[C@H](Cc4c[nH]cn4)NC(=O)[C@H](CO)NC(=O)[C@H](CC(C)C)NC(=O)[C@@H]4CCCN4C(=O)[C@@H](NC(=O)[C@H](CCC(=O)O)NC(=O)[C@H](CO)NC(=O)[C@H](CC(=O)O)NC(=O)[C@H](CO)NC(=O)[C@@H](N)CC(N)=O)CSSC[C@H](NC(=O)[C@H](C(C)C)NC(=O)CNC(=O)[C@H](CC(=O)O)NC(=O)[C@H](Cc4c[nH]cn4)NC(=O)[C@H](CC(C)C)NC3=O)C(=O)N[C@@H](CCSC)C(=O)N[C@@H](Cc3ccc(O)cc3)C(=O)N[C@@H]([C@@H](C)CC)C(=O)N[C@@H](CCC(=O)O)C(=O)N[C@@H](C)C(=O)N[C@@H](CC(C)C)C(=O)N[C@@H](CC(=O)O)C(=O)N[C@@H](CCCCN)C(=O)N[C@@H](Cc3ccc(O)cc3)C(=O)N[C@@H](C)C(=O)N2)CSSC[C@@H](C(=O)N[C@@H](CCC(N)=O)C(=O)N[C@@H](Cc2ccc(O)cc2)C(=O)N[C@@H](CCCNC(=N)N)C(=O)N[C@@H](CC(=O)O)C(=O)N[C@@H](CC(C)C)C(=O)N[C@@H](CCCCN)C(=O)N[C@@H](Cc2c[nH]c3ccccc23)C(=O)N[C@@H](Cc2c[nH]c3ccccc23)C(=O)N[C@@H](CCC(=O)O)C(=O)N[C@@H](CC(C)C)C(=O)N[C@@H](CCCNC(=N)N)C(=O)O)NC(=O)[C@H](CCCNC(=N)N)NC(=O)[C@H](CCC(=O)O)NC(=O)CNC1=O [EGF53, reference compound]	75	1	1				
EGF51N: modified human EGF, chain length 51 amino acids, C-terminus residue asparagine instead of glutamic acid; produced in Pichia pastoris (NSDSECPLSHDGYCLHDGVCMYIEALDKYACNCVVGYIGERCQYRSLKYYN; not fully specified; Recombinant human EGF51N)	75	30	6	20 to 50	10 to 20	Rapid restoration to resting levels of plasma glucose	equivalent to the positive control TGFα
